Reference: patent US20240239875A1 (published 2024)
Residue numbers refer to the chain shown, from its start.

B1: 4-K16-A (antibody, V domains shown)
VH: QIQLVQSGPELKKPGETVKISCKASGYTFTTYGMSWVKQAPGKGLKWMGWMSTYSGVPTYADDFKGRFAFSLETSASTAYLQINNLKNEDTATYFCASGDVGYWGQGTTLTVSS
VL: DIVMTQSQKFMSTSVGDRVSVTCKASQNVGTNVAWYQQKPGQSPKALIYSASYRYSGVPDRFTGSGSGTDFTLTISTVQSEDLAEYFCQQYNIYPSTFGGGTKLEIK
B2: 10-I12-A (antibody, V domains shown)
VH: RVQLQQSGPELVRPGTSVKISCKASGYTFTDSYINWVTQRPGQGLDWIGWIFPGNDNTYYNEKFEGKATLTLDKSSSTAYMLLSSLTSEDSAVYFCARSGGLRLGFAYWGQGTLVTVSA
VL: NIVLTQSPASLAVSRGQRATISCRASESVDSYGHSFIHWYQQKPGQPPKILIYLASKLESGVPARFSGSGSRTDFTLTIDPVEADDAATYYCQQNNEDPWTFGGGTKLEIK
B3: 9-J11-A (antibody, V domains shown)
VH: QVQLQQSGAELVKPGASVKMSCMASGYTFTTYPIEWMKQIHGKSLEWIGNFHPYNDDSKYNEKFKGKATLSVEKSSSTVYLELSRSTSDDSAVYYCARGSYGPYWYFDVWGTGTTVTVSS
VL: DIQMTQSPASLSASVGETVTITCRASGDIHNYLVWYQQKQGKSPQLLVYNAKALADGVPSRFSGSGSGTQYSLKINSLQPDDFGSYYCQHFWSIPYTFGGGTKLEIK
B4: 5-H22-A (antibody, V domains shown)
VH: QVQLQQSGAELVRPGASVTLSCKASGYTFTDYEMHWMKQTPVHGLEWIGAIDLETGGTVYNQKFKGKAILTADKSSNTAYMALRSLTSEDSAVYYCTREFPHYYGSRYGFPYWGQGTLVTVSA
VL: QIVLTQSPAIMSASPGEKVTITCSASSSVSYMHWLQQKPGTSPKLWIYSTSNLASGVPARFSGSGSGTSYSLTISRMEAEDAATYYCQQRSSYPYTFGGGTKLEIK
B5: 10-O3-A (antibody, V domains shown)
VH: QVQLKESGPGLVAPSQSLSITCTVSGFSLTNYAVHWVRQSPGKGLEWLGVIWSDGRTDYNAAFISRLSISKDNSKSQVFFKMNSLQADDTAIYYCVRIEGGSYVGWYFDVWGAGTTVTVSS
VL: DIQMTQSPSSLSASLGGTVTITCKASQDINKFIAWYQHKPGKGPRLLIHYTSTLQPGIPSRFSGSGSGRDYSFSISNLEPEDIATYYCLQYDNLLTFGAGTKLELK
B6: 4-A15-A (antibody, V domains shown)
VH: QVQLQQSGAELVKPGASVKISCKASGNAFSSYWMNWVKQRPGKGLEWIGQIYPGDGDTNFNGRFKGKATLTADISSTTAYMLLSSLTSEDSAVYFCASGGYGSSYERDFDYWGQGTTLTVSS
VL: DIQMNQSPSSLSASLGDTITITCHASQNINVWLSWYQQKPGNIPKLLIYKASNLHTGVPSRFSGSGSGTGFTLTISSLQPEDIATYYCQQGHSYPLTFGGGTKLEIK
B7: 8-H5-A (antibody, V domains shown)
VH: QVTLKESGPGILQSSQTLSLTCSLSGFSLSTSGMGVSWVRQPSGKGLEWLAHIYWDDDKRYTPSLKSRLTISTDSSRKQVFLKITSVDTADTATYYCARRDLHDYDGWFAYWGQGTLVTVSA
VL: B1 VL with S14A, Y53F, T63S, T77N, I93S, S96L, G100S
B8: 4-L4-A (antibody, V domains shown)
VH: QAYLQQSGAELVRPGASVKMSCKASGYTFTSYTVHWVKQTPRQGLEWIGGIYPGNVDTSYNQNFKGKATLTVDKSSSTAYMQLSSLTSEDSAVYFCARDGYYAMDYWGQGTSVTVSS
VL: not shown
B9: 9-K4-A (antibody, V domains shown)
VH: QAYLQQSGAELVRPGASVKMSCKASGYTFPNYSFHWVKQTPRQGLEWIGAIYPGNDDTSYNQRFKGKATLTVDKSSSTAYMQLSSLTSEDSAVYFCARDYSNYPFDCWGQGTTLTVSS
VL: DIVLTQSPASLAVSLGQRATISCRASKSVSTSGYSYMHWYQQKPGQPPKLLIYLASNLESGVPARFSGSGSGTDFTLNIHPVEEEDAATYYCQHSRELPPTFGGGTKLEIK
B10: 3-P7-A (antibody, V domains shown)
VH: B9 VH with P30T, N31S, F34M, R63K, A97T, S101T, C107Y
VL: B9 VL with A12P, K43R, G68A, L108V
B11: 10-L12-A (antibody, V domains shown)
VH: B9 VH with P30T, N31S, F34M, D56G, R63K, A97T, C107Y
VL: B9 VL with M37L
B12: 10-O24-A (antibody, V domains shown)
VH: B9 VH with P30T, N31S, F34M, R63K, K74R, A97T, C107Y
VL: B9 VL with S14F, K43R
B13: 2-H7-A (antibody, V domains shown)
VH: QAYLQQSGAELVRPGASVKMSCKASGYTFTGYTMHWVKQTPRQGLEWIGAIYPENGDTSYNQKFKGKATLTVDKSSSTAYMQLSSLTSEDSAVYFCARDGYDVLYGMDYWGQGTSVTVSS
VL: B9 VL with P100W, E109D
B14: 5-P24-A (antibody, V domains shown)
VH: B9 VH with P30T, N31S, F34M, D56G, N61T, R63K, C107Y
VL: not shown
B15: 3-E2-A (antibody, V domains shown)
VH: EVQLQQSGPELVKPGASVKISCKASGYTFTDYYMNWVKQSHGKSLEWIGDINPNNGGTSYTQKFKGKATLTVDKSSSKAYMELRSLTSEDSAVYYCARRGDGHYGGFTYWGQGTLVTVSA
VL: not shown
B16: 2-O12-A (antibody, V domains shown)
VH: B15 VH with P53S, S59T, T61D, K74R, K78T, Y104F
VL: not shown
B17: 10-L24-A (antibody, V domains shown)
VH: B15 VH with P53S, S59T, T61D, K74R, K78T, Y104F
VL: not shown
B18: 4-M3-A (antibody, V domains shown)
VH: EVQLQQSGPELVKPGDSVKISCKASGYSFTGYFMNWVMQSHGKSLEWIGRINPNNGETFYNQKFKGKATLTVDKSSDTAHMELRSLTSEDSAVYYCARGGTGTGWGQGTTLTVSS
VL: DILMTQSPSSMSVSLGDTVSITCHASQGISSNIGWLQQKPGKSFKGLIYYGTNLEDGVPSRFSGSGSGADYSLTISSLESEDLADYYCIQYAQFPYTFGGGTKLEIK
B19: 8-H3-A (antibody, V domains shown)
VH: EVQLVESGGGLVQPKGSLKLSCAASGFTFNTYAMHWVRQAPGKGLEWVARIRSKSSNYATYYADSVKDRFTISRDDSQSMLYLQMNNLKTEDTAMYYCVRDHDYYGSSYWFTYWGQGTLVTVSA
VL: DVVMTQTPLSLPVSLGDQASISCRSSQSLVHDNGNTYLHWFLQKPGQSPKLLIYKVSNRFSGVPDRFSGSGSGTDFTLKISRVETEDLGVYFCSQSTHVPWTFGGGTKLEIK
B20: 8-L17-A (antibody, V domains shown)
VH: B19 VH with T60R, T112A
VL: B19 VL with D32N, F41Y, T85A
B21: 7-B10-A (antibody, V domains shown)
VH: B19 VH with T60R, D76E, T112A
VL: B19 VL with R24S, D32N, F41Y, T85A
B22: 7-N20-A (antibody, V domains shown)
VH: QVQLVETGGGLVRPGNSLKLSCVTSGFTFSNYRMHWLRQPPGKRLEWIGIITDKSDNYGANYAESVKGRFAISRDDSKSSVYLEMKRLREEDTATYFCSRDGYDWYFDLWGTGTTVTVSS
VL: DIVMTQSHKFMSTSVGDRVRITCKASQDVGIVVAWYQQKPGQSPKLLIYWASTRHTGVPDRFTGSGSGTDFTLTISNVQSEDLADYFCQQYSSYPTFGGGTKLEIK

target: T1, SARS-CoV-2 prefusion stabilized trimer protein (WIV02 isolate spike protein) (UniProt P0DTC2 14-1213); test: ELISA

Binder | EC50
B1 | 1.01 nM
B2 | 64.4 nM
B3 | 0.22 nM
B4 | 18.5 nM
B5 | 3.37 nM
B6 | 0.34 nM

target: SARS-CoV-2 receptor binding domain (UniProt P0DTC2 319-541); test: ELISA

Binder | EC50
B7 | 0.13 nM
B8 | 0.22 nM
B9 | 0.73 nM
B10 | 2.93 nM
B11 | 0.13 nM
B12 | 3.07 nM
B13 | 0.08 nM
B14 | 0.12 nM
B15 | 0.8 nM
B16 | 0.22 nM
B17 | 0.31 nM
B4 | 166 nM
B18 | 0.26 nM
B19 | 0.19 nM
B20 | 0.27 nM
B21 | 0.08 nM

target: T1, SARS-CoV-2 prefusion stabilized trimer …; test: ELISA; remark: another data set of the same source

Binder | EC50
B1 | 1.04 nM
B7 | 0.08 nM
B8 | 0.37 nM
B2 | 64.4 nM
B9 | 1.13 nM
B10 | 38.1 nM
B11 | 0.11 nM
B12 | 1.07 nM
B13 | 0.13 nM
B14 | 0.29 nM
B3 | 0.22 nM
B15 | 0.87 nM
B16 | 0.84 nM
B17 | 0.92 nM
B4 | 75.5 nM
B18 | 1.94 nM
B22 | 0.24 nM
B5 | 3.47 nM
B19 | 0.27 nM
B20 | 0.27 nM
B21 | 0.16 nM
B6 | 0.33 nM
